A word on the Kd: it is the concentration at which binding is half-saturated. Usually koff stands for the rate constant with which the complex falls apart. For orientation: kon means the rate constant with which the complex forms.

In patent US20240059762A1 (SINGLE CELL TECHNOLOGY, published 2024) one finds Kd, koff and kon data, which are given here for one molecule.

The test addresses T1, Recombinant SARS-CoV-2 N protein His tagged (SARS-CoV-2, UniProt P0DTC9 1-419).
T1 construct: also called nucleocapsid (N) protein; recombinant HIS tagged SARS-CoV-2 N protein
The experiment in a line: BLI (Octet Red 96E), mAb on anti-mouse Fc biosensor, N protein in solution, global 1:1 fit. (BLI is a label-free optical method that tracks binding on a fibre tip over time.)

B1: SCT-Pa20 (antibody, mouse IgG1, kappa, V domains shown)
VH: QVQLQQPGAELVKPGASVKLSCKASGYTFTDYWINWVKQRPGQGLEWIGNIYPGSSDTNYNEKFKRKATLTVDTSSSTAYMQLSSLTSDDSAVYYCARRPLFHAMDYWGQGTSVTVSS
VL: DIVLTQSPASLAVTLGQRATISCKASQSINYNGDNYMHWFQQKPGQPTKLLIYTASNLESGVPDRFSGSGSGTDFTLNIHPVEEEDAATYYCQQSKEFPWTFGGGTKLEIKR
As for B1, the Kd is 5.37 pM, the koff amounted to 3.09e-06 s⁻¹ and the kon turned out to be 576000 M⁻¹ s⁻¹.
